Experiment [1] deals with T1, human CD16b (NA1), full length, on FlpinCHO cells (human, UniProt O75015 17-200).
T1 construct: also called FlpinCHO-human CD16b (NA1)
T1 chain: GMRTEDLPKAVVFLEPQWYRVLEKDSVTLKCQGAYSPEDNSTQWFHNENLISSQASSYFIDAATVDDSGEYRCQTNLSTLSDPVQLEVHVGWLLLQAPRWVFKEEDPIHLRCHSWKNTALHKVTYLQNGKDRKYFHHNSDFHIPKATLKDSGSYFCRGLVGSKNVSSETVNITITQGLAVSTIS
Nature of the experiment: FACS on FlpinCHO cells. In a few lines:
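EC50 values come from fitted MFI curves measured by FACS. Antibody dilutions were bound for 1 hour on ice to CD16b-transfected FlpinCHO cells suspended in PBS with 2% BSA blocking solution.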

For experiment [2], the target named is T2, cynomolgus monkey CD16, full length, on FlpinCHO cells (cynomolgus monkey, UniProt Q8SPW2 17-254).
T2 construct: also called FlpinCHO-cyno CD16; Flipin CHO-cyno CD16
T2 sequence (Q8SPW2 other isoform, or with tags, fused parts or gaps limits assumed): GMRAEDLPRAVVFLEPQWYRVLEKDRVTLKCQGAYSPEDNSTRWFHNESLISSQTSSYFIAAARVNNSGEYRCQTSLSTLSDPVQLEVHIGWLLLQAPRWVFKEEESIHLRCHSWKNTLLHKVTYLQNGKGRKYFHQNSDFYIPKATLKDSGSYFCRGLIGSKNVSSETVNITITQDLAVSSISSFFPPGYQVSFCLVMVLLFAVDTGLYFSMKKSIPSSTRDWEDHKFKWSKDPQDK
As to the kind of experiment: FACS on FlpinCHO cells. The method, boiled down: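 FlpinCHO cells expressing full-length cynomolgus CD16, blocked in PBS/2% BSA at 2×10⁶ cells/ml, incubated with antibody at various concentrations 1 h on ice. Flow cytometry MFI fitted to give EC50.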

Experiment [3] addresses T3, human CD16a (158V), full length, on cells (human, UniProt P08637 17-254). Nature of the experiment: cell-based or functional assay.
In experiment [4] the target is T4, human CD16a (158F), full length, on FlpinCHO cells (human, UniProt P08637 17-254). As to the kind of experiment: FACS, biotinylated antibody. (In general: Flow cytometry measures light scatter and fluorescence of single cells or particles in a stream.)
Experiment [5] has as its target T3, human CD16a (158V), full length, on …. As to the kind of experiment: FACS, biotinylated antibody.
For experiment [6], the target named is T5, CD16 on primary human NK cells (human, UniProt P08637 17-254).
T5 construct: whole, on cells; also called resting NK cells
Nature of the experiment: FACS on human NK cells, biotinylated antibody; NK cells, no human immunoglobulin; Table 15.

Experiment [7] addresses T4, human CD16a (158F), full length, on …. As to the kind of experiment: FACS on FlpinCHO cells; no human immunoglobulin; unlabeled antibody, first batch of Table 10. On the procedure:
(§1) The required cells were scale-up cultured in a T-75 cell culture flask to the logarithmic growth phase. The medium was aspirated, and the cells were washed twice with a PBS buffer and then digested with trypsin. After the digestion was terminated, the cells were washed twice with the PBS buffer. The cells were counted, and then the cell pellet was resuspended with a [PBS+2% (w/w) BSA] blocking solution to 2×10⁶ cells/ml, and added to a 96-well FACS reaction plate at 50 μl/well. […] 50 μl/well of the antibody to be detected was added at different concentrations, and incubated on ice for 1 hour. […] The mixture was centrifuged and washed 5 times with PBS, and FACS (FACS Canto II, purchased from BD Company) was used for detection and result analysis. Data analysis was performed by software (CellQuest) to obtain the mean fluorescence intensity (MFI) of the cells. Then, software (GraphPad Prism8) was used for analysis, data fitting and EC50 value calculation.

The target in experiment [8] is T3, human CD16a (158V), full length, on …. The experiment is described as above. The method, then: as §1
For experiment [9], the target named is T4, human CD16a (158F), full length, on …. Nature of the experiment: FACS on FlpinCHO cells; no human immunoglobulin; unlabeled antibody, second batch of Table 10. On the procedure: as §1
The target of experiment [10] is T3, human CD16a (158V), full length, on …. The experiment is described as above. The method, then: as §1
The target is the same in experiment [11]. As to the kind of experiment: FACS, biotinylated antibody; biotinylated antibody, no human immunoglobulin; first batch of Table 11-1. On the procedure:
as §1, with “The” for “The required cells were scale-up cultured in a T-75 cell culture flask to the logarithmic growth phase. The”
(§2) An antibody to be detected was labeled in advance according to the instructions of a biotin labeling kit (EZ-Link™ NHS-PEG4 Biotinylation Kit, purchased from Thermofisher Scientific, catalog number: 21455). […] Detection was performed according to the method of Example 3.1, wherein the biotinylated antibody was detected with fluorescein APC-labeled Streptavidin (High Concentration) (purchased from Biolegend, catalog number: 405243).

Experiment [12] concerns the target T4, human CD16a (158F), full length, on …. Nature of the experiment: FACS, biotinylated antibody; biotinylated antibody, no human immunoglobulin; first batch of Table 12-2. The method, then:
as §1, with “The” for “The required cells were scale-up cultured in a T-75 cell culture flask to the logarithmic growth phase. The”
as §2

Experiment [13] has as its target T5, CD16 on primary human NK cells. As to the kind of experiment: FACS on human NK cells, biotinylated antibody; NK cells, no human immunoglobulin; Table 29 (later experiment).

Several values for one entry are separate records, joined by “and”; a condition that tells them apart may be missing. Identical values can stand only once.

B1: 3G8 scFv-hFc (Fc fusion)
chain: DTVLTQSPASLAVSLGQRATISCKASQSVDFDGDSFMNWYQQKPGQPPKLLIYTTSNLESGIPARFSASGSGTDFTLNIHPVEEEDTATYYCQQSNEDPYTFGGGTKLEIKGGGGSGGGGSGGGGSQVTLKESGPGILQPSQTLSLTCSFSGFSLRTSGMGVGWIRQPSGKGLEWLAHIWWDDDKRYNPALKSRLTISKDTSSNQVFLKIASVDTADTATYYCAQINPAWFAYWGQGTLVTVSAEPKSSDKTHTCPPCPAPEEFGGPSVFLFPPKPKDTLMISRTPEVTCVVVAVSHEDPEVKFNWYVDGVEVHNAKTKPREEQYNSTYRVVSVLTVLHQDWLNGKEYKCKVSNKALPAPIEKTISKAKGQPREPQVYTLPPSREEMTKNQVSLTCLVKGFYPSDIAVEWESNGQPENNYKTTPPVLDSDGSFFLYSKLTVDKSRWQQGNVFSCSVMHEALHNHYTQKSLSLSPGK
notes: also called control antibody 3G8
For orientation: EC50 means the concentration at which the effect is half-maximal. Turning to B1, the EC50 in experiment [1] is 1.22 nM and 2.13 nM; in experiment [2] it was 2.92 nM; in experiment [4], 3.43 nM; in experiment [5] it was 0.99 nM; in experiment [6] it was 1.99 nM; in experiment [7], roughly 0.82 nM. The half-maximal effective concentration (EC50) amounted to 0.56 nM in [8]; 1.63 nM in experiment [9]; 1.13 nM in [10]; 0.7 nM in experiment [11]; 1.73 nM in experiment [12]; 4.45 nM in [13]. Moreover, the results for the “Maximum mean fluorescence intensity” value in experiment [2], in experiment [4] and in experiment [5] were 22300, 2010 and 7520, respectively. Moreover, the “EC50, activation activity for Jurkat cell” value in experiment [3] was 0.03 nM. In addition, the Maximum fluorescence value in [3] amounted to 153000.

These data come from US20240343811A1 (SHANDONG SIMCERE BIOPHARMACUTICAL, published 2024).
